The source of these data is patent US20190169635.

The data set has as its system alpha-1 antitrypsin (AAT) in the serum of wild-type C57BL/6 mice.

Turning to neutrophil elastase, the “relative neutrophil elastase activity (colorimetric kinetics of substrate degradation) after incubation with serum” value was “serum from wild-type male and female C57BL/6 mice exhibited a high capacity to inhibit neutrophil elastase, serum from the three founders showed a reduced capacity to do so”.
